# Test results from the supplement of paper PMC12042874.
# ± gives the uncertainty stated by the source.
# Assay: amyloid nucleation score (Sup35N fusion, yeast selection) (log enrichment); library NNK2; higher = more nucleation; inactive = no reads after selection
# Summary of the method: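 Plasmid inserts were Illumina-sequenced at input and output from psi-negative yeast expressing Sup35N fused to peptides of 20 random codons. The yeast were induced with 100 μM copper sulfate for 24 hours and grown 7 days at 30°C on medium lacking adenine and uracil, and sequences with under 100 input reads were excluded. Nucleation score is the DiMSum log enrichment of output over input reads, centred on the mode score of non-aggregating sequences.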
row,Substance,amyloid nucleation score
1,RVYMCCSSYCGNITKVQ,8.027 ± 0.022
2,RVYNITILYRCLKRRLS,0.878 ± 0.57
3,RWATVLLDPF,-0.299 ± 0.79
4,RWFIDYHGSVFCFQKYIPPV,-0.526 ± 0.54
5,RWKTVFRVYVEQKALPDLIC,5.85 ± 0.087
6,RWLPSVID,-0.302 ± 0.61
7,RWLRPRSFWMDVVGSKI,1.83 ± 0.11
8,RYCFT,1.03 ± 0.38
9,RYFLYFCYVGPNSAMFLSR,-0.27 ± 1.1
10,RYFSISAFMVMGTVNVGGYW,4.18 ± 0.045
11,RYFWRVSNIVWASAF,-0.498 ± 0.44
12,RYFYLLWLIVTWIYSRVVIH,inactive
13,RYIMHL,-0.105 ± 1.1
14,RYINWLQYECNTLCAVDKSL,-0.436 ± 0.76
15,RYPLVKFQCYTGNYGKFGNL,3.01 ± 0.071
16,RYQGLLTPVTAGRLFICIP,-0.363 ± 1.1
17,RYTWWWHSLFMSDSVAMNSA,-0.334 ± 0.42
18,RYVYRTVGWHQFLCGTVLFW,0.588 ± 0.16
19,SAFYKQCEWFFNLMANSLCG,-0.021 ± 0.63
20,SAGEKWWKGMHYARGRPVRR,0.726 ± 0.2
21,SAKHTWVISR,0.098 ± 0.79
22,SALERVKSWSQGNNSIGDHI,-0.418 ± 1.1
23,SALSLICDRWFDCFLRGTQY,3.66 ± 0.15
24,SARFCIWVYVSNGNNGMRCV,3.52 ± 0.04
25,SAVWRHVNDLLLSR,1.11 ± 0.4

row,Substance,amyloid nucleation score
1,SAWRVCYRTNENCAPFMYVL,-1.22 ± 0.75
2,SAYDSTCRFISGFL,-1.68 ± 1
3,SCAIELLVQNNSEHLRLITI,-0.266 ± 0.3
4,SCAVSIVTGRGVHSFVKAWF,0.547 ± 0.17
5,SCDRIRMCCSWCQV,3.54 ± 0.049
6,SCENTSSQELWYTCSIDLKL,0.472 ± 0.66
7,SCFGRKLLLLDGA,0.203 ± 0.28
8,SCFVLLSSVDSLCMQDHF,0.311 ± 0.43
9,SCHVFFVTIEGNASSANGHR,8.14 ± 0.07
10,SCIYLGVLRKVCMRFIMVIV,-1.03 ± 0.63
11,SCKWVRGVSRMPNHWN,-0.618 ± 1.1
12,SCMFYYCCTDTYKVPYSDAM,7.759 ± 0.067
13,SCMLFEAAYPRVYMYWSRRF,-1.91 ± 0.75
14,SCRLFVLYALLFGLSVGCVL,inactive
15,SCRRMLFGMWILGFLNR,inactive
16,SCRTQVMVLSLLFKRKVGFN,-1.28 ± 0.36
17,SCSANCRISLDSSRVVVPYY,0.571 ± 0.64
18,SCTPGLHQGCRCSVLLWEHR,0.681 ± 0.47
19,SCWMMFHPNPMQLKFSYCVE,-0.69 ± 0.33
20,SDCYDDKINVVQSKAVSITL,0.075 ± 0.76
21,SDGSREFSCKLGGAGLGDGW,0.334 ± 0.5
22,SDHTVELFTCKPVMQTRQRT,0.439 ± 0.27
23,SDICTLAEQSGASIRDRLTL,-0.284 ± 1.1
24,SDMDYLWLCIVRTVLNVIYR,-1.17 ± 1.1
25,SDMRCGYMLRCWLVQRVSHR,1.48 ± 0.54

row,Substance,amyloid nucleation score
1,SDNEEKTCGAFVVLS,-0.719 ± 0.49
2,SDNMFSWRCLKDTWLDRRWA,0.294 ± 0.22
3,SDNVLNDSSCLLYINFGAGQ,2.69 ± 0.15
4,SDPALVYRITYVIQ,-0.008 ± 0.49
5,SDSYAILLPC,0.087 ± 0.79
6,SDVRLVLAASEIRYGAGCRW,0.299 ± 0.65
7,SEANKSGVSVGWCDCAVGCV,0.734 ± 0.21
8,SECMIRFVNYADGTFNIGHS,-0.22 ± 0.37
9,SEERPKETRGGFWARVSSGG,0.228 ± 0.74
10,SEHLTCLWCLW,9.924 ± 0.064
11,SEMDPPYPEISHYRYQRNHW,0.11 ± 0.54
12,SENIRDFVLKWCYLDTHDRL,-0.261 ± 1.1
13,SEQWSQIYGAFSV,-1.32 ± 0.63
14,SEWDLRVLTWYMWLFVPLVQ,-0.477 ± 0.39
15,SEWEYPNINE,inactive
16,SEWSQKRGLVYTVQEFQKLY,inactive
17,SFAAMLVSSKVVGWVTGRAT,1.68 ± 0.21
18,SFDKGIDYRFFTFNSNVKYW,3.49 ± 0.12
19,SFEWKPVFLSRLRPRIRHQV,5.66 ± 0.066
20,SFGFVAMMIVRCANFRASPV,0.688 ± 0.81
21,SFGHHPDYRNVMVESYNRMV,0.259 ± 0.23
22,SFGNYRSVWYVTDVFAHIHL,8.335 ± 0.056
23,SFGWAYSVICLFIALTRTFL,-0.123 ± 0.26
24,SFHSCNVS,-0.363 ± 0.74
25,SFHWPSTGYKRVYFSPLLIV,inactive

row,Substance,amyloid nucleation score
1,SFHYLYWIIRLVGRVYLDEG,-0.195 ± 0.36
2,SFIVQHE,0.16 ± 0.55
3,SFIVRQGPTHKFVSECS,-0.887 ± 0.54
4,SFIWEYNMYYTGLGRITWMP,0.922 ± 0.34
5,SFLDYRSLTVMFVAGQSTVR,-0.645 ± 0.53
6,SFLRSNRGEVLPCNILNYVA,inactive
7,SFMDQHFS,-0.419 ± 0.63
8,SFRANDNSFGCQWRRFLISG,0.032 ± 0.42
9,SFSPFVYG,-0.868 ± 0.44
10,SFSVVGNHHVCMDYDMVLNG,0.315 ± 0.32
11,SFVRPGGWPNK,-0.264 ± 0.76
12,SFYLLCLSFMSLCWASRLVV,4.83 ± 0.073
13,SFYRHGFTGNGTSVRGPDRS,0.097 ± 0.79
14,SFYSVTSPRWH,1.92 ± 0.17
15,SGARPVYFWLLIPLSYKL,0.285 ± 1
16,SGEARQH,-0.691 ± 0.49
17,SGEVSAVRV,0.852 ± 0.19
18,SGFLIRKHAKLYKPDQPLLV,0.101 ± 0.54
19,SGFSLDLLVGGPCVPDLTVR,0.228 ± 1
20,SGGAVAYREAKWWSASNLRS,0.373 ± 0.24
21,SGHGLWLDAWCRLLDNRGYL,-0.403 ± 0.44
22,SGILLLRSLFGWPISERGHN,0.167 ± 0.56
23,SGLPMYCSYRYHSRLGNTYR,2.92 ± 0.064
24,SGLTSIWQPTRTRMMSPSRR,0.08 ± 0.79
25,SGNGLLMCPMGSRTGRLFHR,3.54 ± 0.061

row,Substance,amyloid nucleation score
1,SGNICIPFY,inactive
2,SGPATLLPTLGYNGVIVFGN,-0.444 ± 0.78
3,SGSIVRGLCVVFSCVFKGSL,-0.874 ± 0.56
4,SGTYR,inactive
5,SGVLSLGGVQSWNSLLRWDN,-0.476 ± 0.44
6,SGWTFGVQCLYTLVSMFLLC,1.5 ± 0.12
7,SGYCQDCSSGPFESDGINIS,-0.321 ± 1
8,SHAIHRCVGWFGVWTGTLFI,3.69 ± 0.083
9,SHDAYGIYRLQ,0.696 ± 0.38
10,SHYPKGCHWGGLHSGDRKFP,0.892 ± 0.45
11,SIFCGPDVVNTGPKLG,0.751 ± 0.6
12,SIFRLDDEGDPVMREPLM,1.22 ± 0.59
13,SIGNIVVLVEERSVRQPTLF,2.79 ± 0.14
14,SIHEMYFKAMDSVH,-0.276 ± 0.62
15,SILDATCCLGFYKVFAVGMK,-0.669 ± 0.44
16,SILTVKQRTYVNGGRLYSRY,0.005 ± 0.49
17,SINSSV,-0.166 ± 1.1
18,SINTAVSCFMAGICNGHRSE,8.246 ± 0.061
19,SIQRTVS,0.473 ± 0.2
20,SIRSRLEFSFFL,3.45 ± 0.047
21,SISIPCRYYKGLRSTSLYSR,-0.264 ± 0.26
22,SIVYTLTCVL,4.945 ± 0.038
23,SIWLFYHILVFVLMPFAVAF,inactive
24,SIYKIILNSILPPHYNFLTY,-1.21 ± 1
25,SKGNVV,0.709 ± 0.42

row,Substance,amyloid nucleation score
1,SKNDCRVFPSDMHFWHDLVE,0.351 ± 0.44
2,SKNLE,-2.09 ± 0.48
3,SKPCWLFRNK,-1.22 ± 1.1
4,SKPWKYNRFYLESSEWSSFC,1.47 ± 0.3
5,SKQTRYSSCGIISGLVDPFA,-0.329 ± 0.23
6,SKRFIVIATLNTYMFQKLEF,inactive
7,SKTMSKMNKDQLQHSMLHDP,-0.453 ± 0.45
8,SKTYRPCARLSFEHGRCNLV,3.68 ± 0.11
9,SKVFCTIFAWVVVE,7.038 ± 0.033
10,SLACGNEKRFVMILSHI,0.641 ± 0.74
11,SLADDSGNRT,-0.289 ± 0.43
12,SLAHQAFAEPSWTKVEE,0.278 ± 0.26
13,SLAIAVNAMIHNIPADIWMH,6.27 ± 0.083
14,SLARYAGGFRARSGKIFSVC,0.802 ± 0.22
15,SLCMHTAVFHS,0.092 ± 0.32
16,SLDECHLSRRTNS,0.411 ± 0.34
17,SLENWLCAVPLCGESLEKVW,0.469 ± 0.41
18,SLFFFR,5.03 ± 0.06
19,SLGCSAFR,-1.62 ± 0.62
20,SLGEKRFACLATSCCADDCT,0.508 ± 0.2
21,SLKSAFQMKVISYLVEWLVS,-0.6 ± 0.36
22,SLLESLVAMLVGVQRVVDSR,1.03 ± 0.51
23,SLLIFMSFYYWLQVSYRPPR,-1.3 ± 1.1
24,SLLRLIFMLRRGDIHGYCRG,5.84 ± 0.084
25,SLMDLDFPLTSR,-0.334 ± 0.61

row,Substance,amyloid nucleation score
1,SLMLQ,0.706 ± 0.81
2,SLNISCYWHLKFVMRAWHTW,-0.465 ± 1
3,SLNLGRLYDLSMMLAWLGHQ,2.16 ± 0.17
4,SLNPTRSWMRFNINKAHFLL,-0.204 ± 0.48
5,SLQFPISVNTYGDESCNSTV,-0.424 ± 1.1
6,SLRIYGYMDRKSPKESSNFR,0.975 ± 0.37
7,SLRLCLDTMEFRVFKNLGRV,1.45 ± 0.099
8,SLSGRLMNFYIMQNSIPTWW,6.792 ± 0.041
9,SLSHRADACVTS,-0.647 ± 0.64
10,SLSKKMFRCRS,3.4 ± 0.12
11,SLSQMRLSVLSNKDHSIEL,7.964 ± 0.056
12,SLSRNGTVFARFRVSTSRCL,4.23 ± 0.057
13,SLSWQNPCLMFMDNMADMIS,-0.006 ± 0.54
14,SLSYATTFF,0.476 ± 0.24
15,SLTVFHLKYMSQNIKAE,-0.797 ± 1
16,SLVSKIRLRGAWINSGVKTG,0.923 ± 0.17
17,SLVTLWLGANAR,0.175 ± 0.26
18,SLWRNHMMQ,0.746 ± 0.4
19,SLWTYRARTKGCHYVHSVLM,0.164 ± 1.1
20,SLWYFCRPIGGI,-0.391 ± 0.29
21,SMADFIV,-0.767 ± 0.76
